Values quoted from earlier work as cited in US20240209047A1, “GROWTH FACTOR CONJUGATES” (priority 2021, published 2024).

System: non-healing diabetic ulcers
Settings: treated for 20 weeks or until complete wound closure; placebo 25%

B1: PDGF: topical gel containing recombinant human PDGF-BB (Regranex®) (protein, UniProt P01127 82-190, looked up)
Platelet-derived growth …: SLGSLTIAEPAMIAECKTRTEVFEISRRLIDRTNANFLVWPPCVEVQRCSGCCNNRNVQCRPTQVQLRPVQVRKIEIVRKKPIFKKATVTLEDHLACKCETVAAARPVT
modifications: Platelet-derived growth factor subunit B topical gel (becaplermin)
patients healed: 48%
